The values below come from US20260183411A1, “TARGETING SORTILIN” (priority 2024, published 2026).

One series concerns MDA-MB-231 xenograft. Description: MDA-MB-231 murine xenograft efficacy model. The series is classed as in vivo, mouse. The procedure: Murine xenograft experiments were conducted at WuXi AppTec and/or Charles River Laboratories and the care and use of animals was conducted in accordance with the regulations of the Association for Assessment and Accreditation of Laboratory Animal Care (AAALAC). MDA-MB-231 tumor cells (ATCC, Manassas, VA, cat #HTB-26) were grown and maintained in L15 medium supplemented with 10% heat inactivated fetal bovine serum, 1% Antibiotic-Antimycotic, and L-glutamine (2 mM) at 37° C. in an atmosphere in 5% CO2, 95% air. BALB/c Nude, female, 6-8 weeks, weighing approximately 18-22 g were purchased from Vital River Laboratory Animal Technology Co., LTD. Mice were inoculated subcutaneously at the right flank with MDA-MB-231 tumor cells (e.g., triple negative breast cancer cells) (10×10^6) in 0.2 mL of PBS with Matrigel (1:1) for tumor development. Animals were randomized and treatment was started when the average tumor volume reached approximately 150-200 mm^3 for the efficacy study. Dosing volume was adjusted based on body weight and was administered at 10 mL/Kg. […] Free MMAE payload was also tested, and similarly dissolved in 25 mM Histidine 10% sucrose pH 7 and one or more of the following doses, 0.6, 0.06 mg/kg, were administered to the mice i.v. at a QW×4 schedule. Tumor sizes were measured twice weekly in two dimensions using a caliper, and the volume in mm^3 calculated using the formula: V=0.5 a×b^2, where a and b are the long and short diameters of the tumor, respectively. TGI was calculated for each group using the formula: TGI (%)=[1−(Ti−T0)/(Vi−V0)]×100; where Ti is the average tumor volume of a treatment group on a given day, TO is the average tumor volume of the treatment group on the first day of treatment, Vi is the average tumor volume of the vehicle control group on the same day with Ti, and V0 is the average tumor volume of the vehicle group on the first day of treatment.
To characterize the effects of the MMAE payload alone, we included free MMAE at molar equivalency to PDCs, and tested at 0.6 and 0.06 mg/kg, as separate arms.
To characterize the effects of the MMAE payload alone, we included free MMAE at molar equivalency to PDCs, and tested at 0.6 mg/kg.

Series [1] is described as follows: Murine hematotoxicity assay. The series is classed as in vivo, mouse. The note with it: 3 mg/kg i.v. QW×4, BALB/c mice. The protocol:
(§1) Murine hematotoxicity experiments were conducted at Charles River Laboratories and the care and use of animals was conducted in accordance with the regulations of the Association for Assessment and Accreditation of Laboratory Animal Care (AAALAC). Wild type BALB/c, female, 7-8 weeks, weighing approximately 18-22 g were randomized and dosed intravenously with control or test articles at a QW×4 schedule. Dosing volume was adjusted based on body weight and was administered at 10 mL/Kg. PDCs were dissolved in 25 mM Histidine 10% sucrose pH 7 and 3 mg/kg was administered. Free MMAE payload was also tested, and similarly dissolved in 25 mM Histidine 10% sucrose pH 7 and administered to the mice at a dose of […] by i.v. injection at a QW×4 schedule. 3 days following each dose, 150 μL of whole blood was collected via submandibular method and placed in K2 EDTA tubes stored on ice. Blood neutrophil counts were performed on the day of collection by IDEXX labs. Body weights were recorded twice a week until study endpoint.
as §1, with “As outlined in the material” for “Murine hematotoxicity experiments were conducted at Charles River Laboratories”, “methods” for “the care and use”, “Example 1, wild” for “animals was conducted in accordance with the regulations of the Association for Assessment and Accreditation of Laboratory Animal Care (AAALAC). Wild”, “PDCs were dissolved in 25 mM Histidine 10% sucrose pH 7 and 3 mg/kg was administered.” left out

Take `CC[C@H](C)[C@@H]([C@@H](CC(=O)N1CCC[C@H]1[C@H](OC)[C@@H](C)C(=O)N[C@H](C)[C@@H](O)c1ccccc1)OC)N(C)C(=O)[C@@H](NC(=O)[C@H](C(C)C)N(C)C(=O)OCc1ccc(NC(=O)[C@H](CCCNC(N)=O)NC(=O)[C@@H](NC(=O)CCCC(=O)NCCC(=O)N(C)CC(=O)N(C)CC(=O)N(C)CC(=O)N(C)CC(=O)N[C@@H](C)C(=O)N2CCC[C@H]2C(=O)N[C@@H](CCCNC(=N)N)C(=O)N[C@@H](Cc2c[nH]c3ccccc23)C(=O)N[C@@H](CC(=O)O)C(=O)N[C@@H](C)C(=O)N2CCC[C@H]2C(=O)N[C@@H](CC(C)C)C(=O)N[C@@H](CCCNC(=N)N)C(=O)N[C@@H](CC(=O)O)C(=O)N2CCC[C@H]2C(=O)N[C@@H](C)C(=O)N[C@@H](CC(C)C)C(=O)N[C@@H](CCCNC(=N)N)C(=O)N[C@@H](CCC(N)=O)C(=O)N[C@H](C(=O)N[C@@H](CC2CCC2)C(=O)O)C(C)(C)C)C(C)C)cc1)C(C)C` [Arb-SAR-Q15-PDC]: the “tumor growth inhibited relative to vehicle” value in the series with MDA-MB-231 xenograft (3 mg/kg i.v. QW×4, day 22) was 98%. The “body weight loss (Example 8)” value in the series with MDA-MB-231 xenograft (PDCs 3 mg/kg, free MMAE at molar equivalency (0.6 mg/kg)) is on record as “body weight loss tracked each other”. The “blood neutrophil counts compared to vehicle or MMAE treatment” value in series [1] is on record as “reduced neutrophil counts”.
